Results taken from patent US20250376519A1 (JIANGSU HENGRUI PHARMACEUTICALS, published 2025).

T1: human DLL3 (ACRO, DLL3-H52H4) (human, UniProt Q9NYJ7 27-492)
T1 construct: Bought
T1 sequence: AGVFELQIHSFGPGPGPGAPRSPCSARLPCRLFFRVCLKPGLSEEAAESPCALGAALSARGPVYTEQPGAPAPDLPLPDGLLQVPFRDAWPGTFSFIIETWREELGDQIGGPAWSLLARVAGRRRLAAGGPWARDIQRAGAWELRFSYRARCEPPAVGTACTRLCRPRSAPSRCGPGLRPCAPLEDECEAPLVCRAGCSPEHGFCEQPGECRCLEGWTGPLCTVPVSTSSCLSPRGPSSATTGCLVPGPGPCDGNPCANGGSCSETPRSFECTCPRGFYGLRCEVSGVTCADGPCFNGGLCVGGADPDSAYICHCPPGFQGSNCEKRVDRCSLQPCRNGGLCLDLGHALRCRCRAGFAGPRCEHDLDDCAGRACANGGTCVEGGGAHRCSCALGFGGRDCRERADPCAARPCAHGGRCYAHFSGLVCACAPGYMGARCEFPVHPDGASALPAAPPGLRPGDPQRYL

T2: cynomolgus monkey DLL3 on CHO-s cells (cynomolgus monkey, UniProt Q9NYJ7 27-618 (human entry))
T2 construct: also called cynoDLL3/CHO-s; CynoDLL3/CHO-S
T2 chain: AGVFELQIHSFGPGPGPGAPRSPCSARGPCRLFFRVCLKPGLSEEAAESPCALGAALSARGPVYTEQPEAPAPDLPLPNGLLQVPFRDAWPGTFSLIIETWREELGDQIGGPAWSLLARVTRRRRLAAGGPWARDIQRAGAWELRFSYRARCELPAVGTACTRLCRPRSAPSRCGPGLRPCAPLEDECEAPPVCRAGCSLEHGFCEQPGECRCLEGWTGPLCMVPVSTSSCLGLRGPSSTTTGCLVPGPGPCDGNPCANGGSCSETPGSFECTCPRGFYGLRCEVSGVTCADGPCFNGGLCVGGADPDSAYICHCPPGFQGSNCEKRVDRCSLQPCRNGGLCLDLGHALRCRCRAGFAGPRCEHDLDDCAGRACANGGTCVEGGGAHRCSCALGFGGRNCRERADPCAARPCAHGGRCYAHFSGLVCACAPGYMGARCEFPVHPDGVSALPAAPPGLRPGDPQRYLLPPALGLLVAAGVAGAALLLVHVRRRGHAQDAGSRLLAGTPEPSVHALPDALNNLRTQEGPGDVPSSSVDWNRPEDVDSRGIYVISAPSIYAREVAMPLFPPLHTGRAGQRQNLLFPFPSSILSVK

B1: hu110-I2C-Y body (bispecific antibody)
light: NIVMTQSPKSLAVSLGERATINCKASENVGIFVSWYQQKPGQSPKLLIYGASNRYTGVPDRFSGSGSATDFTLTISSLQAEDVADYYCGQSHSYPLTFGQGTKLEIKRTVAAPSVFIFPPSDEQLKSGTASVVCLLNNFYPREAKVQWKVDNALQSGNSQESVTEQDSKDSTYSLSSTLTLSKADYEKHKVYACEVTHQGLSSPVTKSFNRGEC
heavy: EVQLVQSGAEVKKPGASVKVSCKTSGYTFTDYYMNWVRQAPGQSLEWMGIINPYQGGTSYTQKFKGRVTITVDKSASTAYMELSSLRSEDTAVYYCARHFYDSSYLTYSTMDYWGQGTTVTVSSASTKGPSVFPLAPSSKSTSGGTAALGCLVKDYFPEPVTVSWNSGALTSGVHTFPAVLQSSGLYSLSSVVTVPSSSLGTQTYICNVNHKPSNTKVDKKVEPKSCDKTHTCPPCPAPEAAGGPSVFLFPPKPKDTLMISRTPEVTCVVVDVSHEDPEVKFNWYVDGVEVHNAKTKPREEQYNSTYRVVSVLTVLHQDWLNGKEYKCKVSNKALPAPIEKTISKAKGQPREPQVCTLPPSREEMTKNQVSLSCAVKGFYPSDIAVEWESNGQPENNYKTTPPVLDSDGSFFLVSKLTVDKSRWQQGNVFSCSVMHEALHNHYTQKSLSLSPGK
chain: not shown
notes: Format 2 (Y body: DLL3 Fab-Fc hole + CD3 scFv-Fc knob)
B2: hu110-S107E-hot Ig (bispecific antibody)
light 1: NIVMTQSPKSLAVSLGERATINCKASENVGIFVSWYQQKPGQSPKLLIYGASNRYTGVPDRFSGSGSATDFTLTISSLQAEDVADYYCGQSHSYPLTFGQGTKLEIKGGGGSSGAPRFLTRPKASVVSVGKDATLSCQIVGNPFPQVSWEKDKQPVTAGVRFRLAQDGDLYRLKILDLQLSDSGQYVCRARNAHGEAFACLGLQVDAEA
heavy 1: EVQLVQSGAEVKKPGASVKVSCKTSGYTFTDYYMNWVRQAPGQSLEWMGIINPYQGGTSYTQKFKGRVTITVDKSASTAYMELSSLRSEDTAVYYCARHFYDSSYLTYSTMDYWGQGTTVTVSSGGGGSGIPPKIECLPIDISIDEGKVLTVASAFTGEPTPEVTWSTGGRKIHSQEQGRFHIENTDDSTTLTIKDVQKQDGGLYTLTLRNEFGSDSATVNIHIRSIDKTHTCPPCPAPEAAGGPSVFLFPPKPKDTLMISRTPEVTCVVVDVSHEDPEVKFNWYVDGVEVHNAKTKPREEQYNSTYRVVSVLTVLHQDWLNGKEYKCKVSNKALPAPIEKTISKAKGQPREPQVCTLPPSREEMTKNQVSLSCAVKGFYPSDIAVEWESNGQPENNYKTTPPVLDSDGSFFLVSKLTVDKSRWQQGNVFSCSVMHEALHNHYTQKSLSLSPGK
heavy 2: not shown
light 2: not shown
notes: Format 1 (Hot-Ig, Titin/Obscurin-replaced DLL3 Fab), DLL3 x CD3
B3: hu110-I2C-hot Ig (bispecific antibody)
light 1: NIVMTQSPKSLAVSLGERATINCKASENVGIFVSWYQQKPGQSPKLLIYGASNRYTGVPDRFSGSGSATDFTLTISSLQAEDVADYYCGQSHSYPLTFGQGTKLEIKGGGGSSGAPRFLTRPKASVVSVGKDATLSCQIVGNPFPQVSWEKDKQPVTAGVRFRLAQDGDLYRLKILDLQLSDSGQYVCRARNAHGEAFACLGLQVDAEA
heavy 1: EVQLVQSGAEVKKPGASVKVSCKTSGYTFTDYYMNWVRQAPGQSLEWMGIINPYQGGTSYTQKFKGRVTITVDKSASTAYMELSSLRSEDTAVYYCARHFYDSSYLTYSTMDYWGQGTTVTVSSGGGGSGIPPKIECLPIDISIDEGKVLTVASAFTGEPTPEVTWSTGGRKIHSQEQGRFHIENTDDSTTLTIKDVQKQDGGLYTLTLRNEFGSDSATVNIHIRSIDKTHTCPPCPAPEAAGGPSVFLFPPKPKDTLMISRTPEVTCVVVDVSHEDPEVKFNWYVDGVEVHNAKTKPREEQYNSTYRVVSVLTVLHQDWLNGKEYKCKVSNKALPAPIEKTISKAKGQPREPQVCTLPPSREEMTKNQVSLSCAVKGFYPSDIAVEWESNGQPENNYKTTPPVLDSDGSFFLVSKLTVDKSRWQQGNVFSCSVMHEALHNHYTQKSLSLSPGK
heavy 2: not shown
light 2: not shown
notes: as for B2

Legend:
[1] = target: T3, hDLL3 (ECD)-strep twin, biotinylated (human, UniProt Q9NYJ7 27-492, biotinylated); assay: ELISA, biotinylated antigen on streptavidin, OD450
T3 construct: The entry carries a signal peptide (marked only by a dotted line); also called Biotinylated DLL3 antigen; human DLL3 protein
Description: (§1) Streptavidin (abcam, ab136200, 1 μg/mL) was plated at 100 μL/well, and the plates were incubated overnight at 4° C. The plates were washed 3 times with 250 μL of PBST solution (PBS containing 0.1% Tween 20) per well. The plates were blocked with 250 μL of 5% milk per well at 37° C. for 2 h. The plates were washed 3 times with 250 μL of PBST solution per well. Biotinylated DLL3 antigen (1 μg/mL) (SEQ ID NO: 9) was added, and the plates were incubated at 37° C. for 1 h. The plates were washed 3 times with 250 μL of PBST solution per well. Antibodies (maximum concentration 400 nM, serially diluted 4-fold) were formulated, and incubation was performed at 37° C. for 1 h. The plates were washed 6 times with 250 μL of PBST solution per well. […] The plates were washed 6 times with 250 μL of PBST solution per well. TMB (KPL, 5120-0077) substrate solution was added at 100 μL/well, and color development was performed at room temperature for 5-10 min. 1 M H₂SO₄ was added at 100 μL/well to stop the color development, and microplate reader (Molecular Devices, VERSA max) readings at 450 nm were taken.

[2] = target: T1, human DLL3 (ACRO, DLL3-H52H4); assay: SPR Biacore 8K, Ab captured on Protein A
Method in brief: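 Antibodies captured on a Protein A chip for 18 s; DLL3 or CD3D&3E antigen flowed 180 s, then 600 s dissociation, with real-time detection. Regeneration used 10 mM glycine-HCl pH 1.5 between cycles. Kinetics were obtained by 1:1 model fitting.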

[3] = target: T3, hDLL3 (ECD)-strep twin, biotinylated; assay: ELISA, biotinylated antigen on streptavidin
Description: as §1

[4] = target: T2, cynomolgus monkey DLL3 on CHO-s cells; assay: flow cytometry, cynoDLL3/CHO-s cells
Description: The plates were centrifuged at 300 g for 5 min, and the supernatant was removed. Different concentrations of test antibodies were added at 100 μL/well. The plates were incubated in the dark in a refrigerator at 4° C. for 1 h. After 3 centrifugal washes at 300 g, working concentrations of APC anti-human IgG Fc (BioLegend, 410712) or PE F(ab′)2-goat anti-human IgG (invitrogen, H10104) were added. The plates were incubated in the dark in a refrigerator at 4° C. for 40 min. After 3 centrifugal washes at 300 g, the geometric mean fluorescence intensity was measured on an Invitrogen flow cytometer, and the EC50 values for the binding of the antibodies to DLL3-expressing cells were calculated.

Row | Binder | Emax [1] | Kd [2] [nM] | EC50 [3] [nM] | EC50 [4] [nM] | koff [2] [s⁻¹] | kon [2] [M⁻¹ s⁻¹]
1 | B1 | 0.48 | 0.125 | 0.07 | 4.92 | – | –
2 | B2 | 0.45 | 0.113 | 0.11 | 5.01 | 2.82e-05 | 249000
3 | B3 | 0.48 | 0.119 | 0.08 | 4.92 | – | –
